Experimental data: patent US20210356479A1 (BLOODWORKS, published 2021)
Numbering of substitutions follows the chain as printed.

B1: PUMA 1 monoclonal anti-K antibody (antibody, mouse IgG2a, V domains shown)
VH: EVQLQQSGPELVKPGASVKMSCKASGYTFTDYYMKWVKQSHGKSLEWIGDLNPNNGDTFYNQKFKGKATLTVDKSSSTAYIQLNSLTSEDSAVYYCAREAGSSFGSSCNYWGQGTTLTVS
VL: SVVMTQTPKFLLVSAGDRVTITCKASQTVSKDVAWYQQQPGQSPKLLIYYASNRYTGVPDRFTGSGYGTDFTFTISTVQAEDLAVYFCQQDYSSPYTFGGGTKLEIK
notes: also called PUMA 2; PUMA ½
B2: PUMA 1 human IgG3-16 isoallotype (antibody)
heavy: B1 VH
light: B1 VL
notes: Isoallotype named in CLM-00007; not shown: human IgG3 heavy chain constant region, isoallotype IGHG3*16; human kappa light chain constant region (vector pFUSE2-CLIg-hk)
B3: PUMA 1 human IgG3-17 isoallotype (antibody)
heavy: B1 VH
light: B1 VL
notes: Isoallotype named in CLM-00007; not shown: human IgG3 heavy chain constant region, isoallotype IGHG3*17; human kappa light chain constant region (vector pFUSE2-CLIg-hk)
B4: PUMA 1 human IgG4-02 isoallotype (antibody)
heavy: B1 VH
light: B1 VL
notes: not shown: human IgG4 heavy chain constant region, isoallotype IGHG4*02; human kappa light chain constant region (vector pFUSE2-CLIg-hk)
B5: PUMA 1 human IgG3-09 isoallotype (antibody)
heavy: B1 VH
light: B1 VL
notes: Isoallotype named in CLM-00007; not shown: human IgG3 heavy chain constant region, isoallotype IGHG3*09; human kappa light chain constant region (vector pFUSE2-CLIg-hk)
B6: PUMA 1 human IgG3-11 isoallotype (antibody)
heavy: B1 VH
light: B1 VL
notes: Isoallotype named in CLM-00007; not shown: human IgG3 heavy chain constant region, isoallotype IGHG3*11; human kappa light chain constant region (vector pFUSE2-CLIg-hk)
B7: PUMA 1 human IgG3-19 isoallotype (antibody)
heavy: B1 VH
light: B1 VL
notes: Isoallotype named in CLM-00007; not shown: human IgG3 heavy chain constant region, isoallotype IGHG3*19; human kappa light chain constant region (vector pFUSE2-CLIg-hk)
B8: PUMA 1 human IgG3-15 isoallotype (antibody)
heavy: B1 VH
light: B1 VL
notes: Isoallotype named in CLM-00007; not shown: human IgG3 heavy chain constant region, isoallotype IGHG3*15; human kappa light chain constant region (vector pFUSE2-CLIg-hk)
B9: PUMA 1 human IgG3-13 isoallotype (antibody)
heavy: B1 VH
light: B1 VL
notes: also called PUMA1-IgG3-13; not shown: human kappa light chain constant region (vector pFUSE2-CLIg-hk)
B10: PUMA 1 human IgG3-14 isoallotype (antibody)
heavy: B1 VH
light: B1 VL
notes: Isoallotype named in CLM-00007; not shown: human IgG3 heavy chain constant region, isoallotype IGHG3*14; human kappa light chain constant region (vector pFUSE2-CLIg-hk)
B11: PUMA 1 human IgG3-18 isoallotype (antibody)
heavy: B1 VH
light: B1 VL
notes: Isoallotype named in CLM-00007; not shown: human IgG3 heavy chain constant region, isoallotype IGHG3*18; human kappa light chain constant region (vector pFUSE2-CLIg-hk)
B12: PUMA 1 human IgG4-03 isoallotype (antibody)
heavy: B1 VH
light: B1 VL
notes: not shown: human IgG4 heavy chain constant region, isoallotype IGHG4*03; human kappa light chain constant region (vector pFUSE2-CLIg-hk)
B13: PUMA 1 human IgG3-12 isoallotype (antibody)
heavy: B1 VH
light: B1 VL
notes: Isoallotype named in CLM-00007; not shown: human IgG3 heavy chain constant region, isoallotype IGHG3*12; human kappa light chain constant region (vector pFUSE2-CLIg-hk)
B14: PUMA 4 monoclonal antibody (antibody, V domains shown)
VH: EVKLEESGGGLVQPGGSMKLSCVASGFTFSNYWMNWVRQPPEKGLEWVAEIRLNSNNYATHYAESVKGKFTISRDDSKSSVYLQMNDLRAEDTGIYYCTRNWDFAWFDSWGQGTLVTVSA
VL: DIVMTQSHKFMSTSVGDRVSITCKASQDVSTVVAWYQQKPGQSPKLLIYWASTRHTGVPDRFTGSGSGTDYTLTISSVQAEDLALYYCQQHYTTPFTFGSGTKLEIK
notes: Mouse monoclonal from hybridoma

Tests used:
[1] = target: T1, human Kell glycoprotein, K form (KEL1) (human, UniProt P23276 1-732); assay: flow cytometry on K transgenic mouse RBCs
T1 construct: whole, on cells; On human K/K or K+k+ RBCs and on RBCs of K transgenic mice; also called K antigen; K variant
T1 sequence (looked up): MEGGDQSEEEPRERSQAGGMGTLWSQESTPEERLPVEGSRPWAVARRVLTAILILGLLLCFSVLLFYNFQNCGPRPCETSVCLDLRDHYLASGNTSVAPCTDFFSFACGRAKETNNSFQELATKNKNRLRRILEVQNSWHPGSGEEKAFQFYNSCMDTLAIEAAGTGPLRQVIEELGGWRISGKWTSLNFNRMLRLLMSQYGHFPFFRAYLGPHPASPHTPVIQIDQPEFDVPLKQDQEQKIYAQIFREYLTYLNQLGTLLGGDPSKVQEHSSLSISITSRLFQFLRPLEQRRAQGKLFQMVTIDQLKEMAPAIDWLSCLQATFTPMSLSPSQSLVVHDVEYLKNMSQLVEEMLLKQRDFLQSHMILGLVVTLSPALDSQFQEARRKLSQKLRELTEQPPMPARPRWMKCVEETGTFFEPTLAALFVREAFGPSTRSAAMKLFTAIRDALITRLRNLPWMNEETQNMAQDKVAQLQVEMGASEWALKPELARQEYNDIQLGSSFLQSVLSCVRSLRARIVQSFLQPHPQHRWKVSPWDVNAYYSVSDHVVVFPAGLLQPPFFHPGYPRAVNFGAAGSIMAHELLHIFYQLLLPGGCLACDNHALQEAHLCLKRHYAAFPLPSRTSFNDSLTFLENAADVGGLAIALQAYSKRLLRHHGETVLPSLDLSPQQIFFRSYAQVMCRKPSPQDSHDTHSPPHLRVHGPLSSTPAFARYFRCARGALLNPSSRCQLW

[2] = target: T2, human Kell glycoprotein, k form (KEL2) (human, UniProt P23276 1-732); assay: flow cytometry, indirect immunofluorescence on k/k human RBCs
T2 construct: whole, on cells; On human k/k or K-k+ RBCs; also called k antigen
T2 sequence (looked up): T1 sequence (looked up) with M193T
Description: (§1) The specificities of the antibodies were determined to be: PUMA ½ (KEL1 or K), PUMA 3 (a common Kell epitope, PUMA 4 (KEL4 or Kp^b). Flow cytometry was utilized to test antibody specificity by indirect immunofluorescence, using the monocolonal antibodies as the primary reagent and a goat-anti-mouse antibody (conjugated to allophycocyanin) as a secondary antibody. Different target cells expressing different Kell variants were used to determine specificity. Targets included RBCs that phenotyped as homozygous for the 3 main antithetical antigens in the Kell system, K/K, k/k, Kp^{b/}Kp^b, Kp^{a/}Kp^a. Js^{b/}J^b, Js^{a/}Js^a. Differential binding to such tarets tests specificity. In the case of PUMA ½, binding was only observed when K was present but not on k/k RBCs. In the case of PUMA 3, binding was observed on all RBCs regardless of phenotype for K/k, Kp^{a/}Kp^{b,} or Js^{a/}Js^b, thus indicating a common epitope outside these systems. However, PUMA 3 bound to only KELL glycoprotein transgenic murine RBCs and not wild-type murine RBCs; thus, the epitope recognized by PUMA 3 is on the KELL molecule, but not K/k, Kp^{a/}Kp^b, or Js^{a/}Js^b. For PUMA 4, binding was only observed when Kp^b was present but not on Kp^{a/}Kp^a RBCs.

[3] = target: T1, human Kell glycoprotein, K form (KEL1); assay: flow cytometry on human K+k+ RBCs, detected with polyclonal anti-IgG
Description: Flow cytometry consisted of incubating test RBCs with PUMA 1 variants, followed by the anti-IgG being evaluated, followed by a detection reagent. Test RBCs included RBCs from K mice, wild-type mice, and reagent RBCs from humans with the phenotype of (K+k+) or (K−k+). Test RBCs were resuspended in 50 microliters of supernatants of PUMA 1 isoallotypes; in some cases a 1/10 dilution in phosphate buffered saline (PBS) was used. For purified IgG1-IgG4 PUMA 1, the antibodies were diluted in PBS at the indicated concentrations. The tested anti-IgG reagents were used undiluted. Detection reagents consisted of donkey anti-rabbit conjugated to phycoerythrin at a 1/200 dilution (Affymetrix cat #12-4739-81, Santa Clara, Calif.), goat anti-mouse IgM conjugated to allophycocyanin at a 1/100 dilution (BD Biosciences, cat #550826, San Jose, Calif.), and goat anti-mouse Igs conjugated to allophycocyanin at a 1/100 dilution (SouthernBiotech cat #1020-11s, Birmingham, Ala.). All anti-IgG subclass antibodies were conjugated to phycoerythrin, were purchased from SouthernBiotech (catalog numbers 9056-09, 9070-09, 9210-09, 9200-09), and were used at a dilution of 1.200. All incubations were performed for 30 min at room temperature, followed by three washes with PBS. All flow cytometry was performed on an Accuri 4 color cytometer (BD biosciences, San Jose Calif.) and all data was analyzed with Flo-Jo version 10.
To assess the sensitivity of commercially available anti-IgG preparations for different human IgG subclasses bound to RBCs, K+k+ RBCs were first incubated with PUMA 1 of the different human IgG subclasses, followed by incubation with anti-IgG. Treated RBCs were then stained with a fluorescently labeled antibody specific for the species in which the anti-IgG was generated (and non-reactive with human IgG). For each anti-IgG, the same secondary antibody was used to detect binding of the anti-IgG to each human PUMA 1 IgG subclass. To assess relative sensitivity, titrations of each PUMA 1 IgG subclass were carried out and samples were analyzed by flow cytometry using mean fluorescent intensity (MFI) to quantify staining (FIGS. 28A, 28B).

[4] = target: T2, human Kell glycoprotein, k form (KEL2); assay: flow cytometry on human K-k+ RBCs
[5] = target: T3, human Kell glycoprotein, Kp^b form (KEL4) (human, UniProt P23276 1-732); assay: flow cytometry, indirect immunofluorescence on human RBCs
T3 construct: whole, on cells; On human Kp^b/Kp^b RBCs
T3 sequence (looked up): T1 sequence (looked up) with M193T
Description: as §1

binding result [1] | binding result [2] | binding result [3] | binding result [4] | binding result [5] | Binder
binds | no binding | – | – | – | B1
– | – | binds | no binding | – | B2
– | – | binds | no binding | – | B3
– | – | binds | no binding | – | B4
– | – | binds | no binding | – | B5
– | – | binds | no binding | – | B6
– | – | binds | no binding | – | B7
– | – | binds | no binding | – | B8
– | – | binds | no binding | – | B9
– | – | binds | no binding | – | B10
– | – | binds | no binding | – | B11
– | – | binds | no binding | – | B12
– | – | binds | no binding | – | B13
– | – | – | – | binds | B14
